{"source": "paper PMC3646955", "test_in_all_cases": "purified protein", "format_in_all_cases": "biochemical, Serratia marcescens", "key": {"[1]": {"tested_on": "O=c1ccn([C@@H]2O[C@H](COP(=O)(O)OP(=O)(O)OP(=O)(O)O)[C@@H](O)[C@H]2O)c(=O)[nH]1", "details": "750 μM SPT, 50 mM Tris-HCl pH 7.5, 10 mM MgCl2, 50 mM KCl, 25 °C"}, "[2]": {"tested_on": "O=P(O)(O)OP(=O)(O)OP(=O)(O)OC[C@H]1O[C@@H](n2cnc3c(O)ncnc32)[C@H](O)[C@@H]1O", "details": "750 μM SPT, 50 mM Tris-HCl pH 7.5, 10 mM MgCl2, 50 mM KCl, 25 °C"}, "[3]": {"tested_on": "Nc1ccn([C@@H]2O[C@H](COP(=O)(O)OP(=O)(O)OP(=O)(O)O)[C@@H](O)[C@H]2O)c(=O)n1", "details": "750 μM SPT, 50 mM Tris-HCl pH 7.5, 10 mM MgCl2, 50 mM KCl, 25 °C"}, "[4]": {"tested_on": "CN[C@@H]1[C@H](O)[C@H](NC)[C@H]2O[C@@]3(O)C(=O)C[C@@H](C)O[C@H]3O[C@@H]2[C@H]1O", "details": "200 μM ATP, 50 mM Tris-HCl pH 7.5, 10 mM MgCl2, 50 mM KCl, 25 °C"}, "[5]": {"tested_on": "CN[C@@H]1[C@@H](O)[C@@H](O[C@@H]2[C@@H](O)[C@H](O[C@H]3OC(CN)=CC[C@H]3N)[C@@H](N)C[C@H]2N)OC[C@]1(C)O", "details": "500 μM acetyl-CoA"}, "[6]": {"tested_on": "NCC[C@H](O)C(=O)N[C@@H]1C[C@H](N)[C@@H](O[C@H]2O[C@H](CN)[C@@H](O)[C@H](O)[C@H]2O)[C@H](O)[C@H]1O[C@H]1O[C@H](CO)[C@@H](O)[C@H](N)[C@H]1O", "details": "500 μM acetyl-CoA, 50 mM HEPES pH 7.5, AAC(6′) domain"}, "[7]": {"tested_on": "CCN[C@@H]1C[C@H](N)[C@@H](O[C@H]2OC(CN)=CC[C@H]2N)[C@H](O)[C@H]1O[C@H]1OC[C@](C)(O)[C@H](NC)[C@H]1O", "details": "500 μM acetyl-CoA"}, "[8]": {"tested_on": "NC[C@H]1O[C@H](O[C@H]2[C@H](O)[C@@H](O[C@H]3O[C@H](CO)[C@@H](O)[C@H](N)[C@H]3O)[C@H](N)C[C@@H]2N)[C@H](N)C[C@@H]1O", "details": "500 μM acetyl-CoA"}, "[9]": {"tested_on": "NC[C@@H]1O[C@H](O[C@H]2[C@@H](O)[C@H](O[C@@H]3[C@@H](O)[C@H](N)C[C@H](N)[C@H]3O[C@H]3O[C@H](CN)[C@@H](O)[C@H](O)[C@H]3N)O[C@@H]2CO)[C@H](N)[C@@H](O)[C@@H]1O", "details": "500 μM acetyl-CoA, 50 mM HEPES pH 7.5"}, "[10]": {"tested_on": "NC[C@H]1O[C@H](O[C@H]2[C@H](O[C@@H]3O[C@H](CO)[C@@H](O)[C@H]3O)[C@@H](O)[C@H](N)C[C@@H]2N)[C@H](N)[C@@H](O)[C@@H]1O", "details": "500 μM acetyl-CoA, 50 mM HEPES pH 7.5"}, "[11]": {"details": "50 mM HEPES pH 7.5, AAC(6′) domain"}}, "data": [{"substance": "CHis6-tagged ANT(3″)-Ii(1-266) (Serratia marcescens)", "values": [{"measurement": "Km", "setting": "[1]", "value": "26.2 ± 5.7", "unit": "µM"}, {"measurement": "kcat", "setting": "[1]", "value": "0.603 ± 0.047", "unit": "s⁻¹"}, {"measurement": "kcat/Km", "setting": "[1]", "value": "23000 ± 5300", "unit": "M⁻¹ s⁻¹"}, {"measurement": "Km", "setting": "[2]", "value": "12.6 ± 1.5", "unit": "µM"}, {"measurement": "kcat", "setting": "[2]", "value": "0.481 ± 0.013", "unit": "s⁻¹"}, {"measurement": "kcat/Km", "setting": "[2]", "value": "38100 ± 4500", "unit": "M⁻¹ s⁻¹"}, {"measurement": "Km", "setting": "[3]", "value": "33.3 ± 5.6", "unit": "µM"}, {"measurement": "kcat", "setting": "[3]", "value": "0.709 ± 0.04", "unit": "s⁻¹"}, {"measurement": "kcat/Km", "setting": "[3]", "value": "21300 ± 3800", "unit": "M⁻¹ s⁻¹"}, {"measurement": "Km", "setting": "[4]", "value": "0.123 ± 0.015", "unit": "µM"}, {"measurement": "kcat", "setting": "[4]", "value": "5.13 ± 0.11", "unit": "s⁻¹"}, {"measurement": "kcat/Km", "setting": "[4]", "value": "4.15e+07 ± 5.1e+06", "unit": "M⁻¹ s⁻¹"}]}, {"substance": "NHis10-tagged ANT(3″)-Ii/AAC(6′)-IId (Serratia marcescens)", "values": [{"measurement": "Km", "setting": "[5]; [11]", "value": "2.20 ± 0.60", "unit": "µM"}, {"measurement": "kcat", "setting": "[5]; [11]", "value": "2.93 ± 0.16", "unit": "s⁻¹"}, {"measurement": "kcat/Km", "setting": "[5]; [11]", "value": "1.33e+06 ± 370000", "unit": "M⁻¹ s⁻¹"}, {"measurement": "Km", "setting": "[6]", "value": "0.556 ± 0.130", "unit": "µM"}, {"measurement": "kcat", "setting": "[6]", "value": "2.92 ± 0.1", "unit": "s⁻¹"}, {"measurement": "kcat/Km", "setting": "[6]", "value": "5.25e+06 ± 1.25e+06", "unit": "M⁻¹ s⁻¹"}, {"measurement": "Km", "setting": "[7]; [11]", "value": "1.77 ± 0.41", "unit": "µM"}, {"measurement": "kcat", "setting": "[7]; [11]", "value": "1.91 ± 0.08", "unit": "s⁻¹"}, {"measurement": "kcat/Km", "setting": "[7]; [11]", "value": "1.08e+06 ± 250000", "unit": "M⁻¹ s⁻¹"}, {"measurement": "Km", "setting": "[8]; [11]", "value": "7.92 ± 0.53", "unit": "µM"}, {"measurement": "kcat", "setting": "[8]; [11]", "value": "3.84 ± 0.07", "unit": "s⁻¹"}, {"measurement": "kcat/Km", "setting": "[8]; [11]", "value": "485000 ± 34000", "unit": "M⁻¹ s⁻¹"}]}, {"substance": "NHis6-tagged AAC(6′)-IId(267-463) (Serratia marcescens)", "values": [{"measurement": "Km", "setting": "[5]; 50 mM HEPES pH 7.5", "value": "4.92 ± 1.14", "unit": "µM"}, {"measurement": "kcat", "setting": "[5]; 50 mM HEPES pH 7.5", "value": "5.35 ± 0.27", "unit": "s⁻¹"}, {"measurement": "kcat/Km", "setting": "[5]; 50 mM HEPES pH 7.5", "value": "1.09e+06 ± 260000", "unit": "M⁻¹ s⁻¹"}, {"measurement": "Km", "setting": "[7]; 50 mM HEPES pH 7.5", "value": "3.87 ± 0.90", "unit": "µM"}, {"measurement": "kcat", "setting": "[7]; 50 mM HEPES pH 7.5", "value": "3.21 ± 0.2", "unit": "s⁻¹"}, {"measurement": "kcat/Km", "setting": "[7]; 50 mM HEPES pH 7.5", "value": "829000 ± 200000", "unit": "M⁻¹ s⁻¹"}, {"measurement": "Km", "setting": "[8]; 50 mM HEPES pH 7.5", "value": "14.8 ± 3.4", "unit": "µM"}, {"measurement": "kcat", "setting": "[8]; 50 mM HEPES pH 7.5", "value": "3.73 ± 0.25", "unit": "s⁻¹"}, {"measurement": "kcat/Km", "setting": "[8]; 50 mM HEPES pH 7.5", "value": "252000 ± 60000", "unit": "M⁻¹ s⁻¹"}, {"measurement": "Km", "setting": "[9]", "value": "32.1 ± 11.1", "unit": "µM"}, {"measurement": "kcat", "setting": "[9]", "value": "11.1 ± 1", "unit": "s⁻¹"}, {"measurement": "kcat/Km", "setting": "[9]", "value": "346000 ± 124000", "unit": "M⁻¹ s⁻¹"}, {"measurement": "Km", "setting": "[10]", "value": "69.3 ± 4.5", "unit": "µM"}, {"measurement": "kcat", "setting": "[10]", "value": "5.7 ± 0.12", "unit": "s⁻¹"}, {"measurement": "kcat/Km", "setting": "[10]", "value": "82200 ± 5600", "unit": "M⁻¹ s⁻¹"}]}]}
